# Measurements from PMC8178886, “Recombinant laccase rPOXA 1B real-time, accelerated and molecular dynamics stability study” (BMC Biotechnology, 2021).
# Substrate: CCn1c(=NN=c2sc3cc(S(=O)(=O)O)ccc3n2CC)sc2cc(S(=O)(=O)O)ccc21
# Experiment: cells, lysate or membranes
# Type: biochemical, Pleurotus ostreatus
# Details: unpurified concentrate stored 12 months at 240.98 K (-32.55 °C), activity unchanged, 0.1 M citrate pH 3.0, 25 °C, ABTS 0.1-3 mM (all above the KM), air O2
protein,measurement,value
"rPOXA 1B (Pleurotus ostreatus) (protein, recombinant, made in Pichia pastoris X33/pGAPZalphaA-LaccPost-Stop clone 1 (10 L bioreactor); unpurified enzyme concentrate without preservatives) SIGPRGTLNIANKVIQPDGFYRSTVLAGGSYPGPLIKGKTGDRFQINVVNKLADTSMPVDTSIHWHGLFVKGHNWADGPAMVTQCPIVPGHSFLYDFEVPDQAGTFWYHSHLGTQYCDGLRGPLVVYSKNDPHKRLYDVDDESTVLTVGDWYHAPSLSLTGVPHPDSTLFNGLGRSLNGPASPLYVMNVVKGKRYRIRLINTSCDSNYQFSIDGHTFTVIEADGENTQPLQVDQVQIFAGQRYSLVLNANQAVGNYWIRANPNSGDPGFENQMNSAILRYKGARSIDPTTPEQNATNPLHEYNLRPLIKKPAPGKPFPGGADHNINLNFAFDPATALFTANNHTFVPPTVPVLLQILSGTRDAHDLAPAGSIYDIKLGDVVEITMPALVFAGPHPIHLHGHTFAVVRSAGSSTYNYENPVRRDVVSIGDDPTDNVTIRFVADNAGPWFLHCHIDWHLDLGFAVVFAEGVNQTAAANPVPEAWNNLCPIYNSSNPSKLLMGTNAIGRLPAPLKA",Km,41.4 ± 4.6 µM
same,Vmax,10.2 µM/min
